Consider 14 molecules from patent US20110250203A1 (SYMPHOGEN A S, published 2011).

Sequences and labels used below:
T1: Recombinant human CD5 extracellular domain (CD5-ECD) (human, UniProt P06127 25-372)
T1 construct: In-house protein made as CD5-ECD - TEV site - hGH fusion; CD5-ECD isolated by TEV cleavage and nickel column; also called CD5-ECD protein
T1 sequence: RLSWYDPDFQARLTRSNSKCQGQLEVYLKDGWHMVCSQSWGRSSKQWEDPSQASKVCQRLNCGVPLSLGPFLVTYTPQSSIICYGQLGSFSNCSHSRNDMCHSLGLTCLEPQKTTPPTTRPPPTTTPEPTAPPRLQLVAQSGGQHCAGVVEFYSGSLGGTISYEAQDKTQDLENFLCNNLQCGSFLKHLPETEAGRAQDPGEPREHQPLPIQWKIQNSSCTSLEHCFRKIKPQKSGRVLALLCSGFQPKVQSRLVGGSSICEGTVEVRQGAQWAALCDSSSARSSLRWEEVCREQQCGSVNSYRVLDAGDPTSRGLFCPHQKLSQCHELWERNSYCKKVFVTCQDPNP

B1: Anti-CD5 antibody 17 (7H7) (antibody, human IgG1, V domains shown)
VH: EVQLVESGPGLVQPSQSLSITCTVSGFSLTNYDVHWVRQSPGKGLEWLGVIWNYGNTDYNAAFISRLSIRKDSSKSQVFFTMSSLQTPDTAIYYCARNHGDGYYNWYFDV
VL: NIVLTQSPSSLSESLGGKVTITCKASQDINKYIAWYQYKPGKGPRLLIHYTSTLQPGIPSRFSGSGSGRDYSFSISNLEPEDIATYYCLQYDNLWT
notes: also called Ab17; Clone 17
B2: Anti-CD5 antibody 23 (2H11) (antibody, V domains shown)
VH: EVQLQQSGPELVKPGTSVKISCKASGYTFTDYYINWVKQKPGQGLEWIGWIYPGGGNTRYIERFKGKATLTVDTSSSTAYMQLSSLTSEDTAVYFCARNGYWYFDV
VL: DIVLTQSPSSLTVTAGEKVTMSCKSSQSLLNQKNYLTWYQQKTGQPPKLLIYWASTRESGVPDRFTGSGSGTDFTLTISSVQAEDLAVYYCQNDYDYPYT
notes: also called Ab23; Clone 23
B3: Anti-CD5 antibody 31 (3P16) (antibody, human IgG1, V domains shown)
VH: EVQLKESGPELKKPGETVKISCMTSGYMFTNHGMNWVKQAPGKGLKWMGWINTYTGEPTYGDGFKGRFVFSLETSASTAYLQINNLKNEDTATYFCARRVATYFDV
VL: NIVLTQSPAILSVSPGERVSFSCRASQRIGTSMNWYQQRTNGSPRLLIKSASESISGIPSRFSGSGSGTDFTLSINSVESDDVADYYCQQSNSWPLT
notes: also called Ab31; Clone 31
B4: Anti-CD5 antibody 32 (4F3) (antibody, human IgG1, V domains shown)
VH: EVKLVESGPELKKPGETVKISCKASGYMFTNYGMNWVKQAPGKGLKWMGWINTYTGEPTYVEDFKGRFAFSLETSANTAYLQINNLKNEDTATYFCTRRSHITLDY
VL: B3 VL with N1D, A9V, F21L, R28S, M33I, N41D, I55M, N76T, D81E, V83I
notes: also called Ab32; Clone 32
B5: Anti-CD5 antibody 18 (1E7) (antibody, human IgG1, V domains shown)
VH: QVQLKESGGGLVQPGGSLKLSCAASGFTFSNYGMSWVRQIPDKRLELVAAINSNGDITYDPDSVKGRFTISRDNANNSLFLQMRSLKSEDTAMYYCARGTAWFTYWGQGTLVT
VL: DIVLTQSPASLSASVGETVIITCRASENIYSYLVWYQQKQGKSPQLLVYNAKTLAEGVPSRFSGSGSGTQFSLKINSLQSEDFGSYSCQHHYGYPYT
notes: also called Ab18; Clone 18
B6: Anti-CD5 antibody 11 (4E24) (antibody, human IgG1, V domains shown)
VH: EVQLKESGAELVRPGGSVKISCKGSGYTFTNFAIHWVKQSHIKTLEWIGLISTSSGDVSYNQKFKDKATMTVDKSSSTAYMELARLTSEDSAIYYCARHYGANNYFDY
VL: EIVLTQSPTIMSASPGEQVTMTCRTNSSVSSSYLHWYQQKSGASPKLWIYGTSNLASGVPTRFSGSGSGTSYSLTISSVEAGDAATYFCQQYSGYPLT
notes: also called Ab11; Clone 11
B7: Anti-CD5 antibody 12 (4F10) (antibody, human IgG1, V domains shown)
VH: B6 VH with K5Q, G16V, I42A, T44S, T53S, S54N, D66G, N103H
VL: B6 VL with E1D, T9A, T25A, N26T, V29I, G82E, F88Y, G94D
notes: also called Ab12; Clone 12
B8: Anti-CD5 antibody 8 (8G8) (antibody, human IgG1, V domains shown)
VH: QVQLKESGPELEKPGASVRISCKASGYSFTAYNINWVTQRDGKSLEWIGSIDPYYGDTKYNQKFKDKATLTVDKSSSTAHMQVKSLTSEDSAIYYCARRMITMGDWYFDV
VL: EIVLTQSPSSLSASLGDRVTISCRASQDISNYLNWYQRKPDGTVKLLIYYTSRLQSGVPSRFSGSGSGSEYSLTISNLDQEDIATYFCQQGDALPWT
notes: also called Ab8; Clone 8
B9: Anti-CD5 antibody 15 (8E24) (antibody, human IgG1, V domains shown)
VH: QVTLKESGAELVRPGASVKLSCKASGYSFTSYWMNWVKQRPGQGLEWIGMIHPSDSETRLNQKFKDKATLTVDKSSSTAYMQLSSPTSEDSAVYYCARWGDHDDAMDF
VL: DIVLTQSPASLSASVGESVTITCRPSENIYGYFAWYQQRQGKSPQLLVYNAKTLAEGVPSRFSGSGSGTHFSLKINSLQPEDFGTYYCQHHYGTPFT
notes: also called Ab15; Clone 15
B10: Anti-CD5 antibody 34 (5O24) (antibody, human IgG1, V domains shown)
VH: EVKLVESGAELVRSGASVKLSCAASGFNIKDYYIHWVKQRPEQGLEWIGWIDPENGRTEYAPKFQGKATMTADTSSNTAYLQLSSLTSEDTAVYYCNNGNYVRHYYFDY
VL: DVVLTQSPAILSASPGEKVTMTCRAISSVSYMHWYQQKPGSSPKPWIYATSNLASGVPARFSGSGSGTSYSLTISRVEAEDAATYYCQQWSSNPRT
notes: also called Ab34; Clone 34
B11: Anti-CD5 antibody 1 (1D8) (antibody, human IgG1, V domains shown)
VH: EVQLQESGPELVKPEASVKISCKASGYSFTGYTMNWVKQSHGKNLEWIGLINPYNGGTTYNQKFKGKATLTVDTSSSTAFMELLSLTSEDSAVYYCARDYYGSSPDFDY
VL: DIVLTQSTSSLSASLGDRVTINCSASQGISNHLNWFQQKSDGTVKLLIYFTSSLHSGVPSRFSGSGSGTDYSLTISNLEPEDIAAYYCQQYSNLPYT
notes: also called Ab1; Clone 1
B12: Anti-CD5 antibody 9 (6M4) (antibody, human IgG1, V domains shown)
VH: QVQLKESGPELEKPGASVKISCKASGYSFTAYSMNWVKQNNGMSLEWIGSIDPYYGDTKYAQKFKGKATLTVDKASSTAYLQLKSLTSEDSAVYYCARRMITTGDWYFDV
VL: HIVLTQSPSSLSASLGDRVTISCRASQDISTYLNWYQQKPDGTVKLLIFYTSRLHAGVPSRFSGSGSGTHHSLTISNLEQEDIATYFCQQGNSLPFT
notes: also called Ab9; Clone 9
B13: Anti-CD5 antibody 14 (7P9) (antibody, human IgG1, V domains shown)
VH: EVQLKESGAELVKPGASVKLSCTASGFNIKDTYMHWVKQRPEQGLEWIGRIDPANGNTKYDPKFQGKATITADTSSNTAYLQLSSLTSEDTAVYYCAREENYYGTYYFDY
VL: NIVLTQSPASLAASVGETVTITCRASENIYYNLAWYQQKQGKSPQLLIYNANSLEDGVPSRFSGSGSGTQYSMKINSMQPEDTATYFCKQVYDVPFT
notes: also called Ab14; Clone 14
B14: Anti-CD5 antibody 29 (8E15) (antibody, human IgG1, V domains shown)
VH: QVQLKESGADLVKPGASVKLSCTASGFNIKDTYMNWVKERPEQGLEWIGRIDPANGNTKYDPKFQGKATITADTSSNTGYLQLSSLTSEDTAVYYCASYDPDY
VL: B13 VL with N1D, D56G, V91A, F96W
notes: also called Ab29; Clone 29

Positions count from the first letter of the chain named.

The target of the assay is T1, Recombinant human CD5 extracellular …. Put plainly: SPR (Biacore 2000), antibody captured by anti-human Fc, CD5-ECD in solution, 1:1 fit.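 Further: CM5 chip, binding curves at four CD5-ECD concentrations fitted globally, with the signal of a non-CD5-binding control antibody subtracted as reference.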
Experimental: SPR analysis was performed on a Biacore 2000 machine containing four flow cells. A CM5 Biacore chip was conjugated with 8.000 Resonance units (Ru) polyclonal anti-human IgG Fc-specific antibody to flow cells 1-4 according to the manufacturer's instructions. Each anti-CD5 antibody was determined for binding to four different concentrations of CD5-ECD (concentrations for the four cycles are shown below) before the affinity was calculated. The non-CD5 binding antibody, Erbitux served as a negative control and was subtracted from the values obtained with the anti-CD5 specific antibodies. […] Subsequently, all flow cells were washed and after waiting 500 s, 250 μl of CD5-ECD 100 nM or 200 nM (Cycle 1) was injected in Flow cells 1-4. After waiting 1000 s, 30 μl H3PO4 was injected using a flow rate of 60 μl/min. The antibody/antigen complex was then stripped with a low pH acid wash (30 sec. contact time with 100 mM H3PO4). […] Four new cycles were then repeated until all the anti-CD5 antibody clones were tested for binding to CD5 in four different concentrations. The association rate constant (ka) and dissociation constant (kd) were evaluated globally by fitting the four binding curves to predefined 1:1 (Langmuir) association and dissociation models with BIAevaluation 4.1 software (Biacore), Table 13.
As for B1, the Kd (as a rule, a measure of binding affinity in units of concentration) was determined as 0.164 nM; the koff – broadly, the first-order rate constant of dissociation – is 8.45e-05 s⁻¹; the kon – broadly, the second-order rate constant of association – was found to be 515000 M⁻¹ s⁻¹.

For B2, the Kd is 4.79 nM, the koff was determined as 0.000105 s⁻¹ and the association rate constant (kon) was 21900 M⁻¹ s⁻¹.

As to B3, the Kd is 8.85 nM, the koff amounted to 0.000803 s⁻¹ and the kon was determined as 90700 M⁻¹ s⁻¹.

As for B4, the Kd was 0.903 nM, the koff was determined as 0.000116 s⁻¹ and the kon was determined as 128000 M⁻¹ s⁻¹.

In the case of B5, the Kd came to 0.205 nM, the koff came out at 3.27e-05 s⁻¹ and the kon amounted to 160000 M⁻¹ s⁻¹.

Consider B6, for which the Kd turned out to be 0.315 nM, the off-rate constant (koff) came to 2.2e-05 s⁻¹ and the kon amounted to 69900 M⁻¹ s⁻¹.

For B7, the Kd is 1.18 nM, the koff came to 0.000115 s⁻¹ and the kon worked out at 97000 M⁻¹ s⁻¹.

Regarding B8, the Kd was found to be 0.37 nM, the koff stood at 9.81e-06 s⁻¹ and the kon is 26500 M⁻¹ s⁻¹.

Consider B9, for which the Kd was 23.4 nM, the koff was 0.00127 s⁻¹ and the kon was 54400 M⁻¹ s⁻¹.

As for B10, the Kd is 61.3 nM, the koff came out at 0.00084 s⁻¹ and the association rate constant (kon) is 13700 M⁻¹ s⁻¹.

As to B11, the Kd came to 5.19 nM, the koff was 0.000557 s⁻¹ and the kon came to 107000 M⁻¹ s⁻¹.

On to B12, for which the Kd came to 4.35 nM, the koff is 6.17e-05 s⁻¹ and the kon came out at 14200 M⁻¹ s⁻¹.

Consider B13, for which the Kd turned out to be 5.6 nM, the koff is 0.0018 s⁻¹ and the kon is 321000 M⁻¹ s⁻¹.

Regarding B14, the Kd was found to be 2.09 nM, the koff was found to be 0.00137 s⁻¹ and the kon worked out at 655000 M⁻¹ s⁻¹.
